According to the supplement of paper PMC10126150:
± gives the standard deviation of the averaged measurements.

System: ATP
Test: switch fluorescence ratio, 500 uM ATP over buffer (Cy3 cluster intensity, sum of 5 cycles each) (fold (ratio)); higher = stronger signal-on switching upon ATP binding; sequences stand for … in TCGTCGGCAGCGTCAGATGTGTATAAGAGACAGTTTTTTTTTTTTTTTTTTTTTTTTT…TC
Conditions: aptamer strand: ATP DNA aptamer (quencher-CACCTGGGGGAGTATTGCGGAGGAAGG + anchor), 100 nM annealed; ATP concentration: 500 uM
Method in brief: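 Switching-strand clusters labelled with Cy3 on a modified Illumina MiSeq flow-cell were annealed to 100 nM quencher-labelled ATP aptamer, imaged in selection buffer, and re-imaged after 15 min with 500 uM ATP at 22 °C. This was done over five cycles with NaOH stripping and re-annealing in between. The fluorescence ratio is summed target-cycle over summed buffer-cycle Cy3 intensity per cluster, averaged per switch-domain sequence, excluding clusters outside 100-1000 RFU.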
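Also: ATP exposure 15 min at 22 °C before imaging.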

Sequence | switch fluorescence ratio
GGACAAGAGA | 0.996 ± 0.038
GGACAATATA | 1.003 ± 0.0016
GGACAGAGGT | 1 ± 0.044
GGACAGGGGT | 1.03 ± 0.073
GGACATATTT | 1.03 ± 0.042
GGACATGGAC | 0.9775 ± 0.0044
GGACATGGGT | 1 ± 0.019
GGACATTATA | 1.031 ± 0.0056
GGACCAAGGT | 1.01 ± 0.014
GGACGAGGTG | 0.9756 ± 0.0049
GGACGCCTTG | 0.976 ± 0.029
GGACGCCTTT | 0.9753 ± 0.0077
GGACGCTATC | 3.89 ± 0.42
GGACGGGTTA | 1 ± 0.016
GGACGGTATG | 1.02 ± 0.031
GGACGTTTTG | 0.98 ± 0.012
GGACTAGGAG | 1.05 ± 0.012
GGACTCCCAT | 1.23 ± 0.074
GGACTTGCGA | 1.043 ± 0.0042
GGACTTTAAG | 0.952 ± 0.046
GGACTTTAAT | 1 ± 0.017
GGAGAAAAGA | 0.9862 ± 0.0076
GGAGAAATTT | 0.9816 ± 0.0062
GGAGAACTTA | 1.04 ± 0.051
GGAGAAGGCG | 0.994 ± 0.053
GGAGAAGGGA | 0.973 ± 0.062

Sequence | switch fluorescence ratio
GGAGACGGGA | 1.06 ± 0.016
GGAGAGGGGA | 0.982 ± 0.014
GGAGAGTCCG | 1.03 ± 0.036
GGAGATATGT | 0.987 ± 0.026
GGAGATTGGG | 0.9697 ± 0.0033
GGAGATTGGT | 0.983 ± 0.024
GGAGATTTTG | 1 ± 0.042
GGAGCACGTG | 1.12 ± 0.058
GGAGCATTTG | 1.27 ± 0.039
GGAGCGGACG | 1 ± 0.016
GGAGCTCGGG | 0.975 ± 0.038
GGAGCTGCGT | 1.056 ± 0.0098
GGAGGAGAGC | 0.994 ± 0.015
GGAGGAGGGC | 0.909 ± 0.043
GGAGGCCAGC | 1.05 ± 0.075
GGAGGCGTTT | 0.996 ± 0.04
GGAGGGAACT | 1.2 ± 0.34
GGAGGGCAAA | 1.01 ± 0.025
GGAGGGCACG | 0.967 ± 0.053
GGAGGGGCTG | 1.02 ± 0.085
GGAGGGGGCA | 0.9654 ± 0.0011
GGAGGTAAGG | 0.973 ± 0.025
GGAGGTGTGT | 1.02 ± 0.021
GGAGGTTGGG | 0.958 ± 0.013
GGAGTAAAGA | 0.992 ± 0.037
GGAGTACGG | 1.03 ± 0.028

Sequence | switch fluorescence ratio
GGAGTACGGC | 1.06 ± 0.052
GGAGTATATC | 1.08 ± 0.073
GGAGTATTTT | 1.12 ± 0.29
GGAGTCACTG | 1.02 ± 0.017
GGAGTCAGCG | 0.977 ± 0.025
GGAGTCATTT | 1 ± 0.014
GGAGTCGTTA | 1 ± 0.041
GGAGTGAGCG | 0.995 ± 0.036
GGAGTGAGGT | 0.999 ± 0.03
GGAGTGCAG | 0.964 ± 0.025
GGAGTTGTTA | 0.985 ± 0.013
GGAGTTTTGA | 0.982 ± 0.02
GGATAAGGGG | 1.02 ± 0.039
GGATAAGGTT | 0.9871 ± 0.0022
GGATACTAGT | 1.04 ± 0.069
GGATAGGGGG | 0.9963 ± 0.0012
GGATAGTCAG | 0.984 ± 0.016
GGATATACTT | 1.03 ± 0.024
GGATCATCGC | 1.027 ± 0.0065
GGATCCATTC | 0.972 ± 0.019
GGATCGGTCA | 1.016 ± 0.0089
GGATCTTTTT | 1.03 ± 0.026
GGATGAAGGG | 0.981 ± 0.022
GGATGAGGCA | 1.02 ± 0.022
GGATGAGTAT | 1.02 ± 0.058
GGATGATGCA | 1.03 ± 0.028

Sequence | switch fluorescence ratio
GGATGCAGTT | 0.99 ± 0.026
GGATGCCGGG | 1 ± 0.043
GGATGCCTTT | 0.977 ± 0.026
GGATGCGGGA | 0.98 ± 0.028
GGATGCTTTC | 1.02 ± 0.026
GGATGGAAAG | 0.999 ± 0.015
GGATGGATTG | 1.004 ± 0.0022
GGATGGCTCG | 0.993 ± 0.051
GGATGGGGAA | 0.998 ± 0.024
GGATGGGGCA | 1 ± 0.023
GGATGGGGCC | 0.995 ± 0.032
GGATGGGGCG | 0.995 ± 0.027
GGATGGTAGT | 1.01 ± 0.071
GGATGGTGTT | 0.958 ± 0.026
GGATGTGGGT | 1.011 ± 0.0037
GGATTAAGGG | 0.993 ± 0.024
GGATTAATCT | 0.998 ± 0.019
GGATTACGAC | 1.12 ± 0.15
GGATTACGGT | 1.01 ± 0.03
GGATTAGCGA | 0.975 ± 0.025
GGATTAGGTC | 1.02 ± 0.019
GGATTAGTTT | 0.994 ± 0.029
GGATTATGGA | 0.971 ± 0.025
GGATTATTTT | 1 ± 0.012
GGATTCAGGG | 1.01 ± 0.018
GGATTGAAGA | 0.969 ± 0.091

Sequence | switch fluorescence ratio
GGATTGGAGT | 0.977 ± 0.02
GGATTGGGGG | 0.995 ± 0.02
GGATTGGGTG | 1.04 ± 0.09
GGATTGGTGG | 1.01 ± 0.024
GGATTTACGG | 1.001 ± 0.0028
GGATTTAGTA | 1.01 ± 0.034
GGATTTATGA | 1.002 ± 0.0092
GGATTTATGT | 0.94526 ± 0.00032
GGATTTGCCT | 0.997 ± 0.041
GGATTTGGCG | 0.985 ± 0.029
GGATTTGTGT | 1.01 ± 0.034
GGATTTTATA | 1.01 ± 0.024
GGATTTTTTC | 1.02 ± 0.037
GGCAAAGGTA | 0.968 ± 0.014
GGCAATAATA | 1.09 ± 0.035
GGCACAGATT | 1.01 ± 0.019
GGCACCACCT | 1.157 ± 0.0082
GGCACGGGGC | 1.02 ± 0.024
GGCACTAAGT | 1.04 ± 0.036
GGCAGAGTTC | 0.991 ± 0.013
GGCAGCCGGG | 0.97 ± 0.018
GGCAGCCGGT | 1 ± 0.036
GGCAGCTGGG | 0.946 ± 0.023
GGCAGCTGGT | 1.01 ± 0.03
GGCAGTAGTG | 1.002 ± 0.0037
GGCATACCGG | 0.936 ± 0.019

Sequence | switch fluorescence ratio
GGCATAGAGG | 1.03 ± 0.0032
GGCATATGCT | 1.02 ± 0.025
GGCATCAGGG | 1.02 ± 0.013
GGCATCGGAC | 1.04 ± 0.015
GGCATGCCGG | 1.014 ± 0.0089
GGCATGTTTG | 0.9917 ± 0.0027
GGCATTATTT | 1.02 ± 0.023
GGCATTCATT | 0.989 ± 0.033
GGCATTGGCA | 0.995 ± 0.041
GGCATTTGGT | 0.993 ± 0.025
GGCATTTGTA | 1 ± 0.02
GGCCAGCGGA | 1.01 ± 0.024
GGCCATACGT | 1.09 ± 0.094
GGCCCAGGAG | 1.01 ± 0.017
GGCCCAGTAG | 1.14 ± 0.062
GGCCCCGGGG | 1.11 ± 0.069
GGCCGATTGT | 0.962 ± 0.024
GGCCGGAGAC | 1.15 ± 0.041
GGCCGGATGG | 0.991 ± 0.011
GGCCGGCGTG | 0.969 ± 0.031
GGCCGGTGTA | 1.03 ± 0.013
GGCCGTTTTC | 1.01 ± 0.00017
GGCCTAAATT | 0.989 ± 0.031
